From IntAct's records for PubMed 20577264

B1: G2 and S phase-expressed protein 1 (Homo sapiens), Q9NYZ3 (parent)
chain: MEGGGGRDEPSACRAGDVNMDDPKKEDILLLADEKFDFDLSLSSSSANEDDEVFFGPFGHKERCIAASLELNNPVPEQPPLPTSESPFAWSPLAGEKFVEVYKEAHLLALHIESSSRNQAAQAAKPEDPRSQGVERFIQESKLKINLFEKEKEMKKSPTSLKRETYYLSDSPLLGPPVGEPRLLASSPALPSSGAQARLTRAPGPPHSAHALPRESCTAHAASQAATQRKPGTKLLLPRAASVRGRSIPGAAEKPKKEIPASPSRTKIPAEKESHRDVLPDKPAPGAVNVPAAGSHLGQGKRAIPVPNKLGLKKTLLKAPGSTSNLARKSSSGPVWSGASSACTSPAVGKAKSSEFASIPANSSRPLSNISKSGRMGPAMLRPALPAGPVGASSWQAKRVDVSELAAEQLTAPPSASPTQPQTPEGGGQWLNSSCAWSESSQLNKTRSIRRRDSCLNSKTKVMPTPTNQFKIPKFSIGDSPDSSTPKLSRAQRPQSCTSVGRVTVHSTPVRRSSGPAPQSLLSAWRVSALPTPASRRCSGLPPMTPKTMPRAVGSPLCVPARRRSSEPRKNSAMRTEPTRESNRKTDSRLVDVSPDRGSPPSRVPQALNFSPEESDSTFSKSTATEVAREEAKPGGDAAPSEALLVDIKLEPLAVTPDAASQPLIDLPLIDFCDTPEAHVAVGSESRPLIDLMTNTPDMNKNVAKPSPVVGQLIDLSSPLIQLSPEADKENVDSPLLKF

Variants of: B1
Details: with plk1_human PLK1, P53350
Sequence of plk1_human PLK1, P53350 (P53350 whole entry): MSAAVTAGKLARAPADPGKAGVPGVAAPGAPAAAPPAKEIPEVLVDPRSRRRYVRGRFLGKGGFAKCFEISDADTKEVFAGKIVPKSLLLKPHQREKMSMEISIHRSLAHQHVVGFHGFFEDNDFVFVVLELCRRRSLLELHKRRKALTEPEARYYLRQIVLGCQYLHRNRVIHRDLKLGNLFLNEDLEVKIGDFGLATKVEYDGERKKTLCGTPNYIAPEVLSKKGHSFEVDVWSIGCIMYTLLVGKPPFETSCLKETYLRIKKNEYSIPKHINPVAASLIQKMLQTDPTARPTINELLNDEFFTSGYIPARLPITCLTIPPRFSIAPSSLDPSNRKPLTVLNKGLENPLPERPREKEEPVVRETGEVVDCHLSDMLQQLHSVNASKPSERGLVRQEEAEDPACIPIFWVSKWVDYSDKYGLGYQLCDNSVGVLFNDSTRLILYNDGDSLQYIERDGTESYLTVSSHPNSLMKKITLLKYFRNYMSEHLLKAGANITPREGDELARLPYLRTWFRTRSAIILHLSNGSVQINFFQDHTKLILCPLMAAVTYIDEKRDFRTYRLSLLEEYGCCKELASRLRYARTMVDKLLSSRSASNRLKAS

Row | effect of a mutation on the interaction | Variant
1 | disrupting interaction | S454A

Variants of: B1
Details: with plk1_human PLK1, P53350
Remark: another data set of the same source

Row | effect of a mutation on the interaction | Variant
2 | disrupting interaction | S242A
